In IntAct's records for PubMed 30902834:

B1: Protein-arginine N-acetylglucosaminyltransferase SseK3 (Salmonella typhimurium (strain SL1344)), P0DUJ7 (parent)
chain: MFSRVRGFLSCQNYSHTATPAITLPSSGSANFAGVEYPLLPLDQHTPLLFQWFERNPSRFGENQIPIINTQQNPYLNNIINAAIIEKERTIGVLVDGNFSAGQKKALAKLEKQYENIKVIYNSDLDYSMYDKKLSDIYLENIAKIEAQPANVRDEYLLGEIKKSLNEVLKNNPEESLVSSHDKRLGHVRFDFYRNLFLLKGSNAFLEAGKHGCHHLQPGGGCIYLDADMLLTGKLGTLYLPDGIAVHVSRKGNSMSLENGIIAVNRSEHPALKKGLEIMHSKPYGDPYIDGVCGGLRHYFNCSIRHNYEEFCNFIEFKHEHIFMDTSSLTISSWR
partner: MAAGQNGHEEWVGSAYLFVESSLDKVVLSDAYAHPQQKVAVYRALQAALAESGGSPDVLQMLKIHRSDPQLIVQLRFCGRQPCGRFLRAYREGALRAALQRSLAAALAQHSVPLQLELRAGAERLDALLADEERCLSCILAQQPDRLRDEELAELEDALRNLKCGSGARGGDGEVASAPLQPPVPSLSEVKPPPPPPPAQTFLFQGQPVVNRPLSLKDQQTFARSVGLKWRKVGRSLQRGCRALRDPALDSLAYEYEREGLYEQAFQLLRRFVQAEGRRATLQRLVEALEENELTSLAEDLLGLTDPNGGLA
B2: Protein-arginine N-acetylglucosaminyltransferase SseK3 (Salmonella typhimurium (strain SL1344)), P0DUJ7 (parent)
chain: B1 chain

Variants of: B1
Details: with tradd_human TRADD

Row | Variant | effect of a mutation on the interaction
1 | E258A | disrupting interaction

Variants of: B2
Details: with tr10b_human TNFRSF10B

Row | Variant | effect of a mutation on the interaction
2 | E258A | disrupting interaction
